In the test the target is T1, PYR1 (Arabidopsis thaliana, UniProt O49686).
T1 construct: expressed in transfected cells; host or cells: S. cerevisiae strain Y190
T1 sequence (O49686 1-191): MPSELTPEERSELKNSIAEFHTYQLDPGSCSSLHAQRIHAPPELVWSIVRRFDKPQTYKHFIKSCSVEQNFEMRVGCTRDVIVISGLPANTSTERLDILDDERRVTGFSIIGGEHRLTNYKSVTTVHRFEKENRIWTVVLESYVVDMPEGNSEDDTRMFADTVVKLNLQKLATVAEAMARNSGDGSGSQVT
Put plainly: Yeast two hybrid of pACT-HAB1 site saturation mutants with pBD-PYR1 on 10 μM ABA, β-galactosidase staining. Format: cell-based. Further details: key: x: Mutations in HAB1 that disrupt HAB1 interaction with PYR1. As to conditions: S. cerevisiae Y190, 10 μM ABA; dead = lack of detectable staining in comparison to wild type control. An outline of the steps: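 HAB1 (lacking three N-terminal residues) site-saturation mutants in pACT were co-transformed with pBD-PYR1 into S. cerevisiae Y190 and spotted on SD (-Leu,-Trp) with 10 μM ABA. After 2 days at 30 °C, chloroform-lysed colonies were stained for β-galactosidase; "dead" means no detectable staining versus wild-type pair.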

Where a chain is given by its changes, count along the chain named. Names and notes keep the numbering of the source.

B1: G246T: HAB1 mutant (protein, UniProt Q9CAJ0 23-511, looked up, variant G246T)
Protein phosphatase 2C 16: SPVEITQLKNVTDAADLLSDSENQSFCNGGTECTMEDVSELEEVGEQDLLKTLSDTRSGSSNVFDEDDVLSVVEDNSAVISEGLLVVDAGSELSLSNTAMEIDNGRVLATAIIVGESSIEQVPTAEVLIAGVNQDTNTSEVVIRLPDENSNHLVKGRSVYELDCIPLWGTVSIQGNRSEMEDAFAVSPHFLKLPIKMLMGDHEGMSPSLTHLTGHFFGVYDGHTGHKVADYCRDRLHFALAEEIERIKDELCKRNTGEGRQVQWDKVFTSCFLTVDGEIEGKIGRAVVGSSDKVLEAVASETVGSTAVVALVCSSHIVVSNCGDSRAVLFRGKEAMPLSVDHKPDREDEYARIENAGGKVIQWQGARVFGVLAMSRSIGDRYLKPYVIPEPEVTFMPRSREDECLILASDGLWDVMNNQEVCEIARRRILMWHKKNGAPPLAERGKGIDPACQAAADYLSMLALQKGSKDNISIIVIDLKAQRKFKTRT
In the case of B1, the “Mutations in HAB1 that disrupt HAB1 interaction with PYR1” value (from here on “Mutations”) is “x”.

B2: G247A: HAB1 mutant (protein, UniProt Q9CAJ0 23-511, looked up, variant G247A)
Protein phosphatase 2C 16: B1 Protein phosphatase 2C 16 with T224G, G225A
On to B2, for which the “Mutations” value is recorded as “x”.

B3: G246F: HAB1 mutant (protein, UniProt Q9CAJ0 23-511, looked up, variant G246F)
Protein phosphatase 2C 16: B1 Protein phosphatase 2C 16 with T224F
Take B3: the “Mutations” value was “x”.

B4: G246D: HAB1 mutant (protein, UniProt Q9CAJ0 23-511, looked up, variant G246D)
Protein phosphatase 2C 16: B1 Protein phosphatase 2C 16 with T224D
For B4, the “Mutations” value is on record as “x”.

B5: G246V: HAB1 mutant (protein, UniProt Q9CAJ0 23-511, looked up, variant G246V)
Protein phosphatase 2C 16: B1 Protein phosphatase 2C 16 with T224V
B5: the “Mutations” value was “x”.

B6: G246K: HAB1 mutant (protein, UniProt Q9CAJ0 23-511, looked up, variant G246K)
Protein phosphatase 2C 16: B1 Protein phosphatase 2C 16 with T224K
Take B6: the “Mutations” value was “x”.

B7: G246H: HAB1 mutant (protein, UniProt Q9CAJ0 23-511, looked up, variant G246H)
Protein phosphatase 2C 16: B1 Protein phosphatase 2C 16 with T224H
On to B7, for which the “Mutations” value is “x”.

B8: G247Y: HAB1 mutant (protein, UniProt Q9CAJ0 23-511, looked up, variant G247Y)
Protein phosphatase 2C 16: B1 Protein phosphatase 2C 16 with T224G, G225Y
For the molecule B8, the “Mutations” value is “x”.

B9: G246C: HAB1 mutant (protein, UniProt Q9CAJ0 23-511, looked up, variant G246C)
Protein phosphatase 2C 16: B1 Protein phosphatase 2C 16 with T224C
With B9, the “Mutations” value is listed as “x”.

B10: G246W: HAB1 mutant (protein, UniProt Q9CAJ0 23-511, looked up, variant G246W)
Protein phosphatase 2C 16: B1 Protein phosphatase 2C 16 with T224W
As for B10, the “Mutations” value is listed as “x”.

B11: G247M: HAB1 mutant (protein, UniProt Q9CAJ0 23-511, looked up, variant G247M)
Protein phosphatase 2C 16: B1 Protein phosphatase 2C 16 with T224G, G225M
Consider B11, for which the “Mutations” value is recorded as “x”.

B12: G247E: HAB1 mutant (protein, UniProt Q9CAJ0 23-511, looked up, variant G247E)
Protein phosphatase 2C 16: B1 Protein phosphatase 2C 16 with T224G, G225E
As to B12, the “Mutations” value is reported as “x”.

B13: G247Q: HAB1 mutant (protein, UniProt Q9CAJ0 23-511, looked up, variant G247Q)
Protein phosphatase 2C 16: B1 Protein phosphatase 2C 16 with T224G, G225Q
Regarding B13, the “Mutations” value is on record as “x”.

B14: G246I: HAB1 mutant (protein, UniProt Q9CAJ0 23-511, looked up, variant G246I)
Protein phosphatase 2C 16: B1 Protein phosphatase 2C 16 with T224I
As for B14, the “Mutations” value is “x”.

B15: G247I: HAB1 mutant (protein, UniProt Q9CAJ0 23-511, looked up, variant G247I)
Protein phosphatase 2C 16: B1 Protein phosphatase 2C 16 with T224G, G225I
Regarding B15, the “Mutations” value was “x”.

B16: G247R: HAB1 mutant (protein, UniProt Q9CAJ0 23-511, looked up, variant G247R)
Protein phosphatase 2C 16: B1 Protein phosphatase 2C 16 with T224G, G225R
B16: the “Mutations” value is listed as “x”.

B17: G247P: HAB1 mutant (protein, UniProt Q9CAJ0 23-511, looked up, variant G247P)
Protein phosphatase 2C 16: B1 Protein phosphatase 2C 16 with T224G, G225P
As for B17, the “Mutations” value was “x”.

B18: G247K: HAB1 mutant (protein, UniProt Q9CAJ0 23-511, looked up, variant G247K)
Protein phosphatase 2C 16: B1 Protein phosphatase 2C 16 with T224G, G225K
Regarding B18, the “Mutations” value was “x”.

B19: G247V: HAB1 mutant (protein, UniProt Q9CAJ0 23-511, looked up, variant G247V)
Protein phosphatase 2C 16: B1 Protein phosphatase 2C 16 with T224G, G225V
For the molecule B19, the “Mutations” value is recorded as “x”.

B20: G247T: HAB1 mutant (protein, UniProt Q9CAJ0 23-511, looked up, variant G247T)
Protein phosphatase 2C 16: B1 Protein phosphatase 2C 16 with T224G, G225T
Turning to B20, the “Mutations” value is listed as “x”.

B21: G246E: HAB1 mutant (protein, UniProt Q9CAJ0 23-511, looked up, variant G246E)
Protein phosphatase 2C 16: B1 Protein phosphatase 2C 16 with T224E
B21: the “Mutations” value is recorded as “x”.

B22: G247F: HAB1 mutant (protein, UniProt Q9CAJ0 23-511, looked up, variant G247F)
Protein phosphatase 2C 16: B1 Protein phosphatase 2C 16 with T224G, G225F
With B22, the “Mutations” value is reported as “x”.

B23: G247W: HAB1 mutant (protein, UniProt Q9CAJ0 23-511, looked up, variant G247W)
Protein phosphatase 2C 16: B1 Protein phosphatase 2C 16 with T224G, G225W
In the case of B23, the “Mutations” value was “x”.

B24: G246Y: HAB1 mutant (protein, UniProt Q9CAJ0 23-511, looked up, variant G246Y)
Protein phosphatase 2C 16: B1 Protein phosphatase 2C 16 with T224Y
In the case of B24, the “Mutations” value is “x”.

(Values after US10919943B2, “Mutant proteins enabling agrochemical control of plant gene expression” (The Regents of the University of California, priority 2016, dated 2021).)
